Measured values reported in US20110118447A1.

B1: C5A (XPA23) VH R59G (antibody, V domains shown)
VH: EVQLLESGGGLVQPGGSLRLSCAASGFTFSKYFMFWVRQAPGKGLEWVSVISPSGGMTGYADSVKGRFTISRDNSKNTLYLQMNSLRAEDTAVYYCARVGYGGNSDYWGQGTLVTVSS
VL: DIQMTQSPSSVSASVGDRLTIICRASQDINRWLAWYQQTPGNAPKLLIHSATSLQSGVPSRFSGSGSGTDFTLTINSLQPEDFATYYCQQADSFPLTFGGGTKVEIK
B2: C5A (XPA23) VH R59L (antibody, V domains shown)
VH: EVQLLESGGGLVQPGGSLRLSCAASGFTFSKYFMFWVRQAPGKGLEWVSVISPSGGMTLYADSVKGRFTISRDNSKNTLYLQMNSLRAEDTAVYYCARVGYGGNSDYWGQGTLVTVSS
VL: DIQMTQSPSSVSASVGDRLTIICRASQDINRWLAWYQQTPGNAPKLLIHSATSLQSGVPSRFSGSGSGTDFTLTINSLQPEDFATYYCQQADSFPLTFGGGTKVEIK
B3: C5A (XPA23) VH R59F (antibody, V domains shown)
VH: EVQLLESGGGLVQPGGSLRLSCAASGFTFSKYFMFWVRQAPGKGLEWVSVISPSGGMTFYADSVKGRFTISRDNSKNTLYLQMNSLRAEDTAVYYCARVGYGGNSDYWGQGTLVTVSS
VL: DIQMTQSPSSVSASVGDRLTIICRASQDINRWLAWYQQTPGNAPKLLIHSATSLQSGVPSRFSGSGSGTDFTLTINSLQPEDFATYYCQQADSFPLTFGGGTKVEIK
B4: C5A (XPA23) VH R59W (antibody, V domains shown)
VH: EVQLLESGGGLVQPGGSLRLSCAASGFTFSKYFMFWVRQAPGKGLEWVSVISPSGGMTWYADSVKGRFTISRDNSKNTLYLQMNSLRAEDTAVYYCARVGYGGNSDYWGQGTLVTVSS
VL: DIQMTQSPSSVSASVGDRLTIICRASQDINRWLAWYQQTPGNAPKLLIHSATSLQSGVPSRFSGSGSGTDFTLTINSLQPEDFATYYCQQADSFPLTFGGGTKVEIK
B5: C5A (XPA23) VH R59P (antibody, V domains shown)
VH: EVQLLESGGGLVQPGGSLRLSCAASGFTFSKYFMFWVRQAPGKGLEWVSVISPSGGMTPYADSVKGRFTISRDNSKNTLYLQMNSLRAEDTAVYYCARVGYGGNSDYWGQGTLVTVSS
VL: DIQMTQSPSSVSASVGDRLTIICRASQDINRWLAWYQQTPGNAPKLLIHSATSLQSGVPSRFSGSGSGTDFTLTINSLQPEDFATYYCQQADSFPLTFGGGTKVEIK
B6: C5A (XPA23) VH V99A (antibody, V domains shown)
VH: EVQLLESGGGLVQPGGSLRLSCAASGFTFSKYFMFWVRQAPGKGLEWVSVISPSGGMTRYADSVKGRFTISRDNSKNTLYLQMNSLRAEDTAVYYCARAGYGGNSDYWGQGTLVTVSS
VL: DIQMTQSPSSVSASVGDRLTIICRASQDINRWLAWYQQTPGNAPKLLIHSATSLQSGVPSRFSGSGSGTDFTLTINSLQPEDFATYYCQQADSFPLTFGGGTKVEIK
B7: C5A (XPA23) VH V99F (antibody, V domains shown)
VH: EVQLLESGGGLVQPGGSLRLSCAASGFTFSKYFMFWVRQAPGKGLEWVSVISPSGGMTRYADSVKGRFTISRDNSKNTLYLQMNSLRAEDTAVYYCARFGYGGNSDYWGQGTLVTVSS
VL: DIQMTQSPSSVSASVGDRLTIICRASQDINRWLAWYQQTPGNAPKLLIHSATSLQSGVPSRFSGSGSGTDFTLTINSLQPEDFATYYCQQADSFPLTFGGGTKVEIK
B8: C5A (XPA23) VH G100W (antibody, V domains shown)
VH: EVQLLESGGGLVQPGGSLRLSCAASGFTFSKYFMFWVRQAPGKGLEWVSVISPSGGMTRYADSVKGRFTISRDNSKNTLYLQMNSLRAEDTAVYYCARVWYGGNSDYWGQGTLVTVSS
VL: DIQMTQSPSSVSASVGDRLTIICRASQDINRWLAWYQQTPGNAPKLLIHSATSLQSGVPSRFSGSGSGTDFTLTINSLQPEDFATYYCQQADSFPLTFGGGTKVEIK

Legend:
[1] = molecular target: binding partner of C5A (XPA23); assay: Biacore
[2] = molecular target: binding partner (antigen) of C5A (XPA23); assay: Biacore, K-off, fold vs original

Row | Binder | fold difference in affinity vs original [1] | fold difference in affinity vs original [2] | fold affinity vs original [1]
1 | B1 | 1.04 fold | 1.04 fold | 
2 | B2 | 0.08 fold | 0.08 fold | 
3 | B3 |  | 0.92 fold | 0.92 fold
4 | B4 |  | 0.09 fold | 0.09 fold
5 | B5 | 0.07 fold | 0.07 fold | 
6 | B6 | 0.03 fold | 0.03 fold | 
7 | B7 |  | 0.03 fold | 0.03 fold
8 | B8 |  | 0.05 fold | 0.05 fold
